Tests used:
[1] = biological target: T1, TLR9 tagged at the C terminus with enhanced green fluorescent protein, Q9NR96; experiment: photon counting histogram (PCH); live HEK 293 cells expressing TLR9-GFP; molecular brightness compared with GFP monomer; two-component global fit with the brightness of GFP monomer and GFP dimer fixed; bin size 50 µs; without DNA, with CpG DNA or with non-CpG DNA; monomer to dimer; conditions: remark: other sources report otherwise
T1 chain: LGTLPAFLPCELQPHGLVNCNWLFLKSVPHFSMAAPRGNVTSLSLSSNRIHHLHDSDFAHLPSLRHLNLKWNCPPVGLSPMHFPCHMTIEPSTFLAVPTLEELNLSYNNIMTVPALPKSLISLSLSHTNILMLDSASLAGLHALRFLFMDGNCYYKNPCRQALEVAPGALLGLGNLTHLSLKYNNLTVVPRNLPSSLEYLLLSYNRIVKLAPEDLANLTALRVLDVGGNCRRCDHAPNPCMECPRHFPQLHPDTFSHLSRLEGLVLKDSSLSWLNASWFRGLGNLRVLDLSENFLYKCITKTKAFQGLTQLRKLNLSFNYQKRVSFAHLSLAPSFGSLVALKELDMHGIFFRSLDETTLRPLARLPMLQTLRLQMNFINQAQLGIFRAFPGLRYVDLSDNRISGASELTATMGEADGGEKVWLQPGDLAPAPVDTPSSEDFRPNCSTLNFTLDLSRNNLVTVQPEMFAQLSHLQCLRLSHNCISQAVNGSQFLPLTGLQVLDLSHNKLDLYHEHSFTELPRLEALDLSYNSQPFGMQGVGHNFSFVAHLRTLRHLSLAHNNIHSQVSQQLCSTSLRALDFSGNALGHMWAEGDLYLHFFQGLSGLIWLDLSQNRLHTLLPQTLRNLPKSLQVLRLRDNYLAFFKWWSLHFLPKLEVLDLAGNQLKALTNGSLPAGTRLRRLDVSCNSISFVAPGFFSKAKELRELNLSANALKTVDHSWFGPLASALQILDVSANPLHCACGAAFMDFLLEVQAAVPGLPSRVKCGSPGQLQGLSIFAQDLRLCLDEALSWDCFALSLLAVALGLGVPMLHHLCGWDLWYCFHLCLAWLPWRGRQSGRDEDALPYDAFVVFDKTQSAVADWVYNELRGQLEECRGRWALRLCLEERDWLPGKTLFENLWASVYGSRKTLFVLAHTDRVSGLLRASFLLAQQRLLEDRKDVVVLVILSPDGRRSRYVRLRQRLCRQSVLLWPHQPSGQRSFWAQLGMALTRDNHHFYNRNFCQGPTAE

[2] = biological target: T1, TLR9 tagged at the C terminus with …; experiment: two-dimensional photon counting histogram (2dPCH); live HEK 293 cells expressing TLR9-GFP, incubated with Cy5-labelled CpG or non-CpG DNA; single-component fit; brightness in the green and red channels; bin size 50 µs; conditions: remark: other sources report otherwise

percent of TLR9 as dimers (no DNA) [1]: 79.1% | percent of TLR9 as dimers (with CpG DNA) [1]: 82.6% | percent of TLR9 as dimers (with non-CpG DNA) [1]: 82.6% | stoichiometry N [1]: 2 | stoichiometry N [2]: 2
B1: TLR9 tagged at the C terminus with enhanced green fluorescent protein, Q9NR96 26-1032 (receptor)
chain: LGTLPAFLPCELQPHGLVNCNWLFLKSVPHFSMAAPRGNVTSLSLSSNRIHHLHDSDFAHLPSLRHLNLKWNCPPVGLSPMHFPCHMTIEPSTFLAVPTLEELNLSYNNIMTVPALPKSLISLSLSHTNILMLDSASLAGLHALRFLFMDGNCYYKNPCRQALEVAPGALLGLGNLTHLSLKYNNLTVVPRNLPSSLEYLLLSYNRIVKLAPEDLANLTALRVLDVGGNCRRCDHAPNPCMECPRHFPQLHPDTFSHLSRLEGLVLKDSSLSWLNASWFRGLGNLRVLDLSENFLYKCITKTKAFQGLTQLRKLNLSFNYQKRVSFAHLSLAPSFGSLVALKELDMHGIFFRSLDETTLRPLARLPMLQTLRLQMNFINQAQLGIFRAFPGLRYVDLSDNRISGASELTATMGEADGGEKVWLQPGDLAPAPVDTPSSEDFRPNCSTLNFTLDLSRNNLVTVQPEMFAQLSHLQCLRLSHNCISQAVNGSQFLPLTGLQVLDLSHNKLDLYHEHSFTELPRLEALDLSYNSQPFGMQGVGHNFSFVAHLRTLRHLSLAHNNIHSQVSQQLCSTSLRALDFSGNALGHMWAEGDLYLHFFQGLSGLIWLDLSQNRLHTLLPQTLRNLPKSLQVLRLRDNYLAFFKWWSLHFLPKLEVLDLAGNQLKALTNGSLPAGTRLRRLDVSCNSISFVAPGFFSKAKELRELNLSANALKTVDHSWFGPLASALQILDVSANPLHCACGAAFMDFLLEVQAAVPGLPSRVKCGSPGQLQGLSIFAQDLRLCLDEALSWDCFALSLLAVALGLGVPMLHHLCGWDLWYCFHLCLAWLPWRGRQSGRDEDALPYDAFVVFDKTQSAVADWVYNELRGQLEECRGRWALRLCLEERDWLPGKTLFENLWASVYGSRKTLFVLAHTDRVSGLLRASFLLAQQRLLEDRKDVVVLVILSPDGRRSRYVRLRQRLCRQSVLLWPHQPSGQRSFWAQLGMALTRDNHHFYNRNFCQGPTAE

Reference: PMC3070698
